Assay: yeast display, Sf9 membrane polyspecificity reagent, FACS + sequencing; frameworks hold sequencing errors
How it was run: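 Sorting gates, low and high (top ~1%), were placed on anti-HA fluorescence to track expression and on streptavidin fluorescence to track reagent binding. A clone's polyreactivity label is taken from the gate it came out of. The reagent was 10% biotinylated, detergent-solubilized Sf9 membrane, applied for 1 hour at 4 °C to galactose-induced yeast display cells.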

Sequence	polyreactivity (PSR sort gate)
QVQLVESGGGLVQAGGSLRLSCAASGRTFGWYAMGWYRQAPGKERELVAAITSGTSTYYADSVKGRFTISRDNAKNTVYLQMNSLKPEDTAVYYCAAQQGISNGTGVSATNPMDYWGQGTQVTVSS	low polyreactivity
QVQLVESGGGLVQAGGSLRLSCAASGRTFGWYAMGWYRQAPGKERELVAAITSGTSTYYADSVKGRFTISRDNAKNTVYLQMYSLKPEDTAVYYCAVDRGISVGYTRFDYWGQGTEVTVSS	low polyreactivity
QVQLVESGGGLVQAGGSLRLSCAASGRTFGWYTMGWYRHAPGKERELVAAISRSGTSTYYADSVKGRFTISRDNAKNTVYLQMHSLKPEDTAVYYCAQYVNARGGNDWGQGTLVTVSS	high polyreactivity
QVQLVESGGGLVQAGGSLRLSCAASGRTFGWYTMGWYRKAPGKVRELVAGISSSGGSTYYADSVKGRFTISRDNAKNTVYLQMNSLKPEDTAVYYCARETYPHGLYYRPYDYWGQGTQVTVSS	low polyreactivity
QVQLVESGGGLVQAGGSLRLSCAASGRTFGWYTMGWYRQAPGKEREFVAAISSSDTSTYYADSVKGRFTISRDNAKNTVYLQMNSLKPEDTAVYYCAADPPSWLWFVGYSYDYWGQGTQVTVTS	low polyreactivity
QVQLVESGGGLVQAGGSLRLSCAASGRTFGYNAMGWYRQAPGKERELVAAIRYSGGSTYYADSVKGRFTISRDNAKNTVYLQMNSLKPEDTAVYYCAKETRRYYRGYYYWGQGTQVTVSS	high polyreactivity
QVQLVESGGGLVQAGGSLRLSCAASGRTFGYNAMGWYRQAPGKERELVAAISSSGGSTYYADSVKGRFTISRDNAKNTVYLQMNSLKPEDTAVYYCATQGYSWAHGSDYWGQGTQVTVSS	low polyreactivity
QVQLVESGGGLVQAGGSLRLSCAASGRTFGYNAMGWYRQAPGKERELVATISWGCGSTYYADSLKWRFTISPDNAKNTVYLQMNSLKPEDTAVYYCNKVHYGRLHSYSRAIYGEDYWGQGTQVTVSS	high polyreactivity
QVQLVESGGGLVQAGGSLRLSCAASGRTFGYNAMGWYRQAPGKETELVAAIRYSGGSTYYADSVKGRFTISRDNSKNTVYLQMNSLKPEDTAVYYCAKETRRYYRGYYYWGQGTQVTVSS	high polyreactivity
QVQLVESGGGLVQAGGSLRLSCAASGRTFGYNVMGWYRQAPGKERELVADITSTSSTSYADSVKGRFTISRDNAKNTVYLQMNSLKPEDTAVYYCAAYYYFFRRYSWRLSGDYWGQGTQVTVSS	low polyreactivity
QVQLVESGGGLVQAGGSLRLSCAASGRTFGYYAMGWYIQAPGKERELVAAISSRGGSTYYADSVKGRFTISRDNAKNTVYLQMNSLKPEDTAVYYCNTRWTNIHPRYDYWGQGTQVTVSS	high polyreactivity
QVQLVESGGGLVQAGGSLRLSCAASGRTFGYYAMGWYRPAPGKERELVAAISSGGGTYYADSVKGRFTISRDNAKNTVYLQRNSLNPEASAVYYIAATGWLYWGQFYYWGQGTLVTVSS	low polyreactivity
QVQLVESGGGLVQAGGSLRLSCAASGRTFGYYAMGWYRQAPGKEREFVAAISFRTTSTYYADSVKGRFTISRDNAKNTVYLQMNSLKPEDTAVYYCNADWYLLSTWYDYWGQGTQVTVSS	high polyreactivity
QVQLVESGGGLVQAGGSLRLSCAASGRTFGYYAMGWYRQAPGKERELVAAISGSGGSTYYADSVKGRFTISRDNAKNTVYLQMKSLKPEDTAVYYCNVYPPYAMDYWGQGTQVTVSS	high polyreactivity
QVQLVESGGGLVQAGGSLRLSCAASGRTFGYYAMGWYRQAPGKERELVAAISRSGGSTYYADSVKGRFTISRDNAKNTVYLQMNSLKPEDTAVYYCAVKGYVKSDYWGQGTQVTVSS	high polyreactivity
QVQLVESGGGLVQAGGSLRLSCAASGRTFGYYAMGWYRQAPGKERELVAAISWSGGRTYYADSVKGRFTISRDNAKNTVYLQMNSLKPEDTAVYYCAAQTAGFWYDYWGQGTQVTVSS	high polyreactivity

Sequence	polyreactivity (PSR sort gate)
QVQLVESGGGLVQAGGSLRLSCAASGRTFGYYAMGWYRTAPGKERELVAAIRSTGSTNYADSVKGRFTISRDNAKNTVYLQMNSLKPEDTAVYYCNAKRRFRYDYWGQGTQVTVSS	low polyreactivity
QVQLVESGGGLVQAGGSLRLSCAASGRTFGYYTMGWSRQAPGKERDLVATISSDGTTNYADSVKGRFTISRDNAKNTVYLQMNSLKPEDTAVYYCNADFRLQYYYRIYDYWGQGTQVTVSS	low polyreactivity
QVQLVESGGGLVQAGGSLRLSCAASGRTFGYYVMGWYRQAPGKERELVAAISQSGGSTYYADSVKGRFTISRDNAKNTVYLQMNSLKPEDTAVYYCAKRGWRTFQGGYWGQGTQVTVSS	high polyreactivity
QVQLVESGGGLVQAGGSLRLSCAASGRTFHGYAMGWYRQAPGKERELVARINWSDGRTYYADSVKGRFTISRDNAKNTVYLQMNSLKPVDTAVYYCAADKNVSYAPAWFYYWGQGTQVTVSS	low polyreactivity
QVQLVESGGGLVQAGGSLRLSCAASGRTFHHNAMGWYRQAPGKERELVATITAGSGSTYYADSVKGRFTISRDNAKNTVYLQMNSQKPEDTAVYYCAARVGWNKRRYDYWGQCTQVTVSS	low polyreactivity
QVQLVESGGGLVQAGGSLRLSCAASGRTFHIYAMGWYRQAPGKERELVAAIRGRSGSTYYADSVKGRFTISRDNAKNTVYLQMNSLKPEDTAVYYCAVGRYPYGSARYRFDYWGQGTQVTVSS	high polyreactivity
QVQLVESGGGLVQAGGSLRLSCAASGRTFHKNAMGWYRQAPGQERELVAAISGSGGSTYYADSVKGRFTISRDNAKNTVYLQMNSLKPEDTAVYYCAADSSYYEEDYWGQGNQVTVSS	high polyreactivity
QVQLVESGGGLVQAGGSLRLSCAASGRTFHRYAMGWYRQAPGKERELVATISRGGSTNYADSVKGRFTISRDNAKNTVYLQMHSLKPEDTAVYYCAAESWIYWYPDTGDYWGQGTQVTLSS	high polyreactivity
QVQLVESGGGLVQAGGSLRLSCAASGRTFHSNAMGWYRKAPGKERELVAAIRFGGGSTYYADSVKGRFTISRDNAKNTVYLQMNSLKPEDTAVYYCNASPLWIGWEIVPVGSSHYDYWGQGTQVTVSS	low polyreactivity
QVQLVESGGGLVQAGGSLRLSCAASGRTFHSNDMGWYRQAPGKERELVAAISSSDGITYYADSVKGRFTISRDNAKNTVYLQMNSLKQEDNAVYYCAARRYRSGYYSFYFWGQGTQVTVSS	high polyreactivity
QVQLVESGGGLVQAGGSLRLSCAASGRTFHYNAMGWYRQAPGKERELVAAITRSGGSTYYADSVKGRFTISRDNAKNTVYLQMNSLKPEDTAVYYCNAAYLHPGPFDYWGQGTQVTVSS	low polyreactivity
QVQLVESGGGLVQAGGSLRLSCAASGRTFHYYAMGWYRQAPGKERELVAGISRRGGSTSYADSVKGRFTISRDNAKNTLYLQMNSLKPEDTAVYYCNADRVTFSWPVNYYWVDYWGQGTQVTVSS	high polyreactivity
QVQLVESGGGLVQAGGSLRLSCAASGRTFIGNVMGWSRQAPGKERELVAAITRSGGSTYYADSVKGRFTISRDNAKNTVYLQMNSLKPEDTAVYYCNAVRRTGGHGDYWGQGTQVTVSS	high polyreactivity
QVQLVESGGGLVQAGGSLRLSCAASGRTFIGYAMGWYRQAPGKERELVAAISSGGNTYYADSVKGRFTISRDNAKNTVYFQMNSLKPEDTAVYYCAAKGYRRVARYFIGDYWGQGTQVTVSS	low polyreactivity
QVQLVESGGGLVQAGGSLRLSCAASGRTFIIYTMGWYRQAPGKEREFVAAITRSGGGTYYADSVKGRFTISRDNAKNTVYLQMNSLKPEDTAVYYCAADRFYDQAYDYWGQGTQVTVSS	low polyreactivity
QVQLVESGGGLVQAGGSLRLSCAASGRTFIIYTMGWYRQAPGKEREFVAAITRSGGGTYYADSVKGRFTISRDNAKNTVYLQMNSLKPEDTAVYYFAADRFYDQAYDYWGQGTQVTVSS	low polyreactivity

— the nanobody polyreactivity screen of Harvey et al. (2022)
